How the values were obtained:
[1] = target: plasma membrane bound human c-Kit expressed by human tumor cells (Mo7e; also Malm-3M) (human, UniProt P10721 26-976); assay: cell-based or functional assay
[2] = target: T1, plasma membrane bound mouse (p815) c-Kit expressed by mouse tumor cells (p815) (mouse, UniProt P05532 25-979); assay: flow cytometry on whole live P815 cells
T1 construct: whole, on cells; also called c-Kit on P815 cells
Experimental: Species specificity of c-Kit mAbs can be further tested for their binding to plasma membrane bound c-Kit expressed on the surface of human Mo7e and mouse P815 cells based on the flow cytometry analysis (see, e.g., WO2004/007735). Briefly, whole, live human Mo7e and mouse P815 cells are serum starved overnight, washed 3 times in cold blocking buffer (5% FBS in PBS), and then resuspended in 100 μl of blocking buffer. An anti-c-Kit antibody is added at 1.0 μg/ml and the mixture is incubated for 30 minutes at 4° C. A secondary fluorescence-conjugated antibody (Jackson ImmunoResearch) is added at 1.0 μg/ml to detect human antibody bound to the cell surface via flow cytometry analysis.

[3] = target: T2, recombinant mouse c-Kit (rm-c-Kit; Gln26-Thr519) (R&D Systems) (mouse, UniProt P05532 26-519); assay: ELISA, plate coated with rm-c-Kit 1 ug/ml
T2 construct: also called mouse c-Kit (1.0 ug/ml)
T2 sequence (looked up): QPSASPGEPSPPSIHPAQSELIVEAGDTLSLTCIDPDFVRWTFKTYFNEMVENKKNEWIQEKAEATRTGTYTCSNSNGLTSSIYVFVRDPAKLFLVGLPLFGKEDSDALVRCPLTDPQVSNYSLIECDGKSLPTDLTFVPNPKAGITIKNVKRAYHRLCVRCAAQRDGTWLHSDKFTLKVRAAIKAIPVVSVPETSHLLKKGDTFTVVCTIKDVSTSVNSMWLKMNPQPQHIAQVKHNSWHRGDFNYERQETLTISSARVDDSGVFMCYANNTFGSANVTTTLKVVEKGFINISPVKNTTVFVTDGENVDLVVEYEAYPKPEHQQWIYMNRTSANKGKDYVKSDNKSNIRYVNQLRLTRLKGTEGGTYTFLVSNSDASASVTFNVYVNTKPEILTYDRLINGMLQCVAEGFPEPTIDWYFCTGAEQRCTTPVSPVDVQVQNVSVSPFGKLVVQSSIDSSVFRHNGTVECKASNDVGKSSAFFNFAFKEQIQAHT
Experimental: (§1) The species binding specificity of anti-human c-Kit mAbs can be determined by measuring the reactivity of the antibodies to human, cynomolgus, and mouse c-Kit proteins in an ELISA. […] Following washes, wells are blocked with 3% PBS/milk. Serial dilutions of human anti-human-c-Kit mAbs are then added to the c-Kit-coated wells and allowed to incubate for two hours at room temperature. Following several washes, a 1:1000 dilution of anti-human IgG-HRP conjugated antibody is added to the plates for one hour at room temperature in order to detect bound human antibody. Plates are washed and HRP substrate is added to each well and incubated until blue color is developed. Stop solution is added and absorbance is measured at 450 nm.

[4] = target: T3, cynomolgus c-Kit (cyno-c-Kit; Met1-His549 prepared recombinantly) (cynomolgus); assay: ELISA, plate coated with cyno-c-Kit 1 ug/ml
T3 construct: The printed range starts at Met1, so it includes the signal peptide of the expressed construct; also called cynomologus c-Kit; cynomolgus c-Kit (1.0 ug/ml)
Experimental: as §1

[5] = target: T4, recombinant human c-Kit (rh-c-Kit) protein (R&D Systems) (human, UniProt P10721 26-520, limits assumed); assay: SPR (BIAcore), rh-c-kit immobilized on CM5 chip, 25 C
T4 construct: also called human c-Kit protein; human c-Kit (1.0 ug/ml)

[6] = target: T4, recombinant human c-Kit (rh-c-Kit) …; assay: ELISA, plate coated with rh-c-Kit 1 ug/ml, anti-human IgG-HRP detection
Experimental: Following washes, wells are blocked with 3% PBS/milk. […] Plates are washed and HRP substrate is added to each well and incubated until blue color is developed. Stop solution is added and absorbance is measured at 450 nm.

[7] = target: T4, recombinant human c-Kit (rh-c-Kit) …; assay: blocking ELISA: CK6 pre-incubated with rh-c-Kit, added to SCF-coated wells
Experimental: Purified mAbs can be also tested for their ability to block the binding of c-Kit and its ligand. […] Following washes, wells are blocked with 3% PBS/milk. […] Following several washes (3-5), a 1:1000 dilution of anti-human IgG-HRP conjugated antibody is added to the plates for one hour at room temperature. Plates are washed in 0.2% Tween-PBS and HRP substrate is added to each well and incubated until blue color is developed. Stop solution is added and absorbance is measured at 450 nm.

T4 sequence (P10721 26-520 limits assumed): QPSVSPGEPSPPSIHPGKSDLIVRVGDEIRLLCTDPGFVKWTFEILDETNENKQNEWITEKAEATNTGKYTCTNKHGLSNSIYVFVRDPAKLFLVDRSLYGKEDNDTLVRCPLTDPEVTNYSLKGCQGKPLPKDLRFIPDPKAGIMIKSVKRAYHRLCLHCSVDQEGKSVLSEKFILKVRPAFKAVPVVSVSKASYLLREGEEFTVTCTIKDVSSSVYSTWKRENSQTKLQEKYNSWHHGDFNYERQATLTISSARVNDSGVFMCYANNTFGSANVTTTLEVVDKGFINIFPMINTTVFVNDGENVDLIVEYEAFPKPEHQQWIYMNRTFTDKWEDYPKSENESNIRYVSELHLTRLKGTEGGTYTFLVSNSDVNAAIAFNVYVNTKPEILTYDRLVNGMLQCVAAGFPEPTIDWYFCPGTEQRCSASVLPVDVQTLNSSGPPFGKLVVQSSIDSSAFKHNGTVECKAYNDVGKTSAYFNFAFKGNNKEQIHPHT
T1 sequence (P05532 25-979): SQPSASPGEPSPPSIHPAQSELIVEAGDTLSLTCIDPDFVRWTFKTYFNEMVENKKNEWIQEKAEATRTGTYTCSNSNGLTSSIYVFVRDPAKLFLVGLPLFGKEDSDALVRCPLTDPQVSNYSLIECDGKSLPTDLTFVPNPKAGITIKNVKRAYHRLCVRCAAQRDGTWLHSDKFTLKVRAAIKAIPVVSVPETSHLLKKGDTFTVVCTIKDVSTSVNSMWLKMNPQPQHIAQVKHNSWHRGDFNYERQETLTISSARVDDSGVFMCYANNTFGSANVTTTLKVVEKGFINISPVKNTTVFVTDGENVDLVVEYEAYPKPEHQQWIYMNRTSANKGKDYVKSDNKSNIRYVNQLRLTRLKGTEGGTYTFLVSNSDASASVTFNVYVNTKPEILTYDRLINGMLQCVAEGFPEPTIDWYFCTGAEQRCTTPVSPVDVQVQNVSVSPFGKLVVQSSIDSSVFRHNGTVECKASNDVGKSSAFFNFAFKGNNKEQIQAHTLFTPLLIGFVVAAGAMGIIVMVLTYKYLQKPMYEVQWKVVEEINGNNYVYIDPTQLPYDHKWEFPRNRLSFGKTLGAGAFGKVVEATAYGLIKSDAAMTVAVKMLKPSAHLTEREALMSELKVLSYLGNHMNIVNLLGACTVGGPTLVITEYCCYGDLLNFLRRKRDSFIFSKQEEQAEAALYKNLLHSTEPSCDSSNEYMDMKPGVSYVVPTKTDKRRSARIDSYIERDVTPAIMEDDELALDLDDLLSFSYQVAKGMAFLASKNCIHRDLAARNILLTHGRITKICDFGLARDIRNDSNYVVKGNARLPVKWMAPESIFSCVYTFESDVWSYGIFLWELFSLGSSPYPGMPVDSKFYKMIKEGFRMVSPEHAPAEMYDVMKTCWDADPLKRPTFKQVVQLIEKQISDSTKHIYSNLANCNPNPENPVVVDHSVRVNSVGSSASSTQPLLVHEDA
Sequence of plasma membrane bound human c-Kit expressed by human tumor cells (Mo7e; also Malm-3M) (P10721 26-976): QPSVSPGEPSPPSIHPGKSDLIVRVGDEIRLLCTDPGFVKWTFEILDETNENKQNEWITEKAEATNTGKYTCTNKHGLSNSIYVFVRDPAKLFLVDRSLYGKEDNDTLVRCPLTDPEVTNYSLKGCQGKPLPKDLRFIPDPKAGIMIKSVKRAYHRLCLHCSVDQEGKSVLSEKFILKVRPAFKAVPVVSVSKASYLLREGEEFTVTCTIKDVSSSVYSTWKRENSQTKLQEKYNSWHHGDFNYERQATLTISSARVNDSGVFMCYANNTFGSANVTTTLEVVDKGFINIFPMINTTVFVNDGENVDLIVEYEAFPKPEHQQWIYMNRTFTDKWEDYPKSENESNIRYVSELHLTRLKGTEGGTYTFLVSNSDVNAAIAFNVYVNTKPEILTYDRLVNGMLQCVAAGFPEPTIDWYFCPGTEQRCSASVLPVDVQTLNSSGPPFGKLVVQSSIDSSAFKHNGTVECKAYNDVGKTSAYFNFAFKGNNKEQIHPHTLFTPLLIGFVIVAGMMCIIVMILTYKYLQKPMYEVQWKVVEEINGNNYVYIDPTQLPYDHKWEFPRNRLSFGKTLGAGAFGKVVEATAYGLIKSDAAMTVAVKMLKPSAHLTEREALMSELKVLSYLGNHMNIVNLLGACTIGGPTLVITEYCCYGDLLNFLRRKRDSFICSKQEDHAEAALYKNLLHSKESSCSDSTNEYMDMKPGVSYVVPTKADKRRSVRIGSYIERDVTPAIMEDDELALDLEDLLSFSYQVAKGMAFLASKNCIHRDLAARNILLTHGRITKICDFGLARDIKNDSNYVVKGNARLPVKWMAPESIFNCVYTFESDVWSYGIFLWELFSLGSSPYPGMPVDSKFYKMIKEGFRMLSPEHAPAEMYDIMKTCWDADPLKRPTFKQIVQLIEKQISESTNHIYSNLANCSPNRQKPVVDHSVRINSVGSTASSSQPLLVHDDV

IC50 of inhibition of c-Kit and MAPK phosphorylation in response to SCF in Mo7e ('Mole') leukemia cells, western blot [1]: 0.3 nM
binding result [2]: no binding (tested: 1.0 µg/ml)
binding result [3]: no binding
EC50 [4]: 0.057 nM
Kd [5]: 0.066 nM
EC50 [6]: ~0.03 nM
IC50 [7]: ~0.04 nM
B1: anti-human c-Kit monoclonal antibody CK6 (antibody, human IgG1, kappa, V domains shown)
VH: QVQLVQSGAAVKKPGESLKISCKGSGYRFTSYWIGWVRQMPGKGLEWMGIIYPGDSDTRYSPSFQGQVTISAGKSISTAYLQWSSLKASDTAMYYCARHGRGYNGYEGAFDIWGQGTMVTVSS
VL: AIQLTQSPSSLSASVGDRVTITCRASQGISSALAWYQQKPGKAPKLLIYDASSLESGVPSRFSGSGSGTDFTLTISSLQPEDFATYYCQQFNSYPLTFGGGTKVEIKR
notes: also called mAb CK6; anti-c-Kit mAb CK6

Source: patent US20120288506A1 (Eli Lilly, published 2012)
